PMC12636033, “Chemical Engineering of Transcription Factors Uncovered Cell-Permeable μMax Modulators”

Molecular target: WT Max (Homo sapiens, UniProt P61244-2 13-93, M65Nle, norleucine written as M; other non-natural residues written as X)
Assay: PBM; 50-200 nM protein; PBS, 2% milk, BSA, salmon testes DNA, 0.02% Triton X-100
Conditions: chain copies: 2; label: surface-attached array probe

Sequence of WT Max (P61244 other isoform, or with tags, fused parts or gaps M65Nle): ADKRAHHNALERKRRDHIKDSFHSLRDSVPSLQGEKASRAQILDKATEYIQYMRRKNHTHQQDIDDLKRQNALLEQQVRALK

B1: dBr_Jan07_20880 (dsDNA)
DNA 1: GTCGGTTAACCTACTGTAACGTCGCTTTCGGTGTGTGTCTGTGTTCCGTTGTCCGTGCTG
DNA 2: CAGCACGGACAACGGAACACAGACACACACCGAAAGCGACGTTACAGTAGGTTAACCGAC
binding signal: -0.14 robust z of log adjusted intensity (ours), mean of two arrays

B2: dBr_Jan07_06986 (dsDNA)
DNA 1: CAATAGACGTTGCAATTTGGCCTGACAGCTACGGAAGTCTGTGTTCCGTTGTCCGTGCTG
DNA 2: CAGCACGGACAACGGAACACAGACTTCCGTAGCTGTCAGGCCAAATTGCAACGTCTATTG
binding signal: -0.17 robust z of log adjusted intensity (ours), mean of two arrays

B3: dBr_Jan07_04854 (dsDNA)
DNA 1: CTGGGTTGGCCCTGCATTGGATACCTTTGAGCTCTCGTCTGTGTTCCGTTGTCCGTGCTG
DNA 2: CAGCACGGACAACGGAACACAGACGAGAGCTCAAAGGTATCCAATGCAGGGCCAACCCAG
binding signal: -0.33 robust z of log adjusted intensity (ours), mean of two arrays

B4: dBr_Jan07_22655 (dsDNA)
DNA 1: GCCCACCCACCGAAATCGTCAATAGGCCTCACAGAAGTCTGTGTTCCGTTGTCCGTGCTG
DNA 2: CAGCACGGACAACGGAACACAGACTTCTGTGAGGCCTATTGACGATTTCGGTGGGTGGGC
binding signal: -0.54 robust z of log adjusted intensity (ours), mean of two arrays

B5: dBr_Jan07_06649 (dsDNA)
DNA 1: TAAAGGTCACCAATAGTCATTGCAGACTGGGACAATGTCTGTGTTCCGTTGTCCGTGCTG
DNA 2: CAGCACGGACAACGGAACACAGACATTGTCCCAGTCTGCAATGACTATTGGTGACCTTTA
binding signal: -0.27 robust z of log adjusted intensity (ours), mean of two arrays

B6: dBr_Jan07_17054 (dsDNA)
DNA 1: GTTCTCCCTTGATTCAAGTATAACAAGATACCCATCGTCTGTGTTCCGTTGTCCGTGCTG
DNA 2: CAGCACGGACAACGGAACACAGACGATGGGTATCTTGTTATACTTGAATCAAGGGAGAAC
binding signal: -0.28 robust z of log adjusted intensity (ours), mean of two arrays

B7: dBr_Jan07_00680 (dsDNA)
DNA 1: ACACCAGCGCGTCAGGAGTTGTGTGAACCCACACCCGTCTGTGTTCCGTTGTCCGTGCTG
DNA 2: CAGCACGGACAACGGAACACAGACGGGTGTGGGTTCACACAACTCCTGACGCGCTGGTGT
binding signal: -0.81 robust z of log adjusted intensity (ours), mean of two arrays

B8: dBr_Jan07_30747 (dsDNA)
DNA 1: GGTACTACGATATAGGGATTACGCACCGCAAGGAGCGTCTGTGTTCCGTTGTCCGTGCTG
DNA 2: CAGCACGGACAACGGAACACAGACGCTCCTTGCGGTGCGTAATCCCTATATCGTAGTACC
binding signal: -0.4 robust z of log adjusted intensity (ours), mean of two arrays

B9: dBr_Jan07_40846 (dsDNA)
DNA 1: CCAGATCAACGCTTGCTAAATAAACGCAGCAAACTGGTCTGTGTTCCGTTGTCCGTGCTG
DNA 2: CAGCACGGACAACGGAACACAGACCAGTTTGCTGCGTTTATTTAGCAAGCGTTGATCTGG
binding signal: -0.51 robust z of log adjusted intensity (ours), mean of two arrays

B10: dBr_Jan07_30748 (dsDNA)
DNA 1: CCGCAAGGAGCGCACTAGCATCTCCTCTCTTGGGCCGTCTGTGTTCCGTTGTCCGTGCTG
DNA 2: CAGCACGGACAACGGAACACAGACGGCCCAAGAGAGGAGATGCTAGTGCGCTCCTTGCGG
binding signal: -0.64 robust z of log adjusted intensity (ours), mean of two arrays

B11: dBr_Jan07_34312 (dsDNA)
DNA 1: TTCAGACTGGCGCATGGTGCCCTCTGAACCCTGAATGTCTGTGTTCCGTTGTCCGTGCTG
DNA 2: CAGCACGGACAACGGAACACAGACATTCAGGGTTCAGAGGGCACCATGCGCCAGTCTGAA
binding signal: -0.02 robust z of log adjusted intensity (ours), mean of two arrays

B12: dBr_Jan07_28572 (dsDNA)
DNA 1: CGCTTTGCTCAGACGTCTGACTCGGACTATGAGAGGGTCTGTGTTCCGTTGTCCGTGCTG
DNA 2: CAGCACGGACAACGGAACACAGACCCTCTCATAGTCCGAGTCAGACGTCTGAGCAAAGCG
binding signal: -0.41 robust z of log adjusted intensity (ours), mean of two arrays

B13: dBr_Jan07_22296 (dsDNA)
DNA 1: TGAAGTGATTGTATGACCTTCTCCACTCTGCCGCCAGTCTGTGTTCCGTTGTCCGTGCTG
DNA 2: CAGCACGGACAACGGAACACAGACTGGCGGCAGAGTGGAGAAGGTCATACAATCACTTCA
binding signal: -0.32 robust z of log adjusted intensity (ours), mean of two arrays

B14: dBr_Jan07_39257 (dsDNA)
DNA 1: CAAACAGGCCGGTCTCTCGGTACAGTCACGTGTTCAGTCTGTGTTCCGTTGTCCGTGCTG
DNA 2: CAGCACGGACAACGGAACACAGACTGAACACGTGACTGTACCGAGAGACCGGCCTGTTTG
binding signal: 4.93 robust z of log adjusted intensity (ours), mean of two arrays

B15: dBr_Jan07_41703 (dsDNA)
DNA 1: CATTCATGTTGAGATAACACGTGGTTGGGCGTTAATGTCTGTGTTCCGTTGTCCGTGCTG
DNA 2: CAGCACGGACAACGGAACACAGACATTAACGCCCAACCACGTGTTATCTCAACATGAATG
binding signal: 5.69 robust z of log adjusted intensity (ours), mean of two arrays

B16: dBr_Jan07_19002 (dsDNA)
DNA 1: CTATGCCGGGATAGTTCACCATACGGTCACAGCTTTGTCTGTGTTCCGTTGTCCGTGCTG
DNA 2: CAGCACGGACAACGGAACACAGACAAAGCTGTGACCGTATGGTGAACTATCCCGGCATAG
binding signal: -0.39 robust z of log adjusted intensity (ours), mean of two arrays

B17: dBr_Jan07_23467 (dsDNA)
DNA 1: ATTGGGGATGACAAGAGCTCTTCACAAAGAGGCCTTGTCTGTGTTCCGTTGTCCGTGCTG
DNA 2: CAGCACGGACAACGGAACACAGACAAGGCCTCTTTGTGAAGAGCTCTTGTCATCCCCAAT
binding signal: -0.43 robust z of log adjusted intensity (ours), mean of two arrays

B18: dBr_Jan07_16045 (dsDNA)
DNA 1: TACATATTGCCCTTTGGGTGAGTCACTCATTTTGGGGTCTGTGTTCCGTTGTCCGTGCTG
DNA 2: CAGCACGGACAACGGAACACAGACCCCAAAATGAGTGACTCACCCAAAGGGCAATATGTA
binding signal: -0.17 robust z of log adjusted intensity (ours), mean of two arrays

B19: dBr_Jan07_19753 (dsDNA)
DNA 1: ACACGTGTATGTAACATGCGAGCACTTCGTGCGCCTGTCTGTGTTCCGTTGTCCGTGCTG
DNA 2: CAGCACGGACAACGGAACACAGACAGGCGCACGAAGTGCTCGCATGTTACATACACGTGT
binding signal: 3.43 robust z of log adjusted intensity (ours), mean of two arrays

B20: dBr_Jan07_41473 (dsDNA)
DNA 1: TACTCGAAGCGTAAAAAAGACCGGGTAGGAAGCCAAGTCTGTGTTCCGTTGTCCGTGCTG
DNA 2: CAGCACGGACAACGGAACACAGACTTGGCTTCCTACCCGGTCTTTTTTACGCTTCGAGTA
binding signal: -0.29 robust z of log adjusted intensity (ours), mean of two arrays

B21: dBr_Jan07_21945 (dsDNA)
DNA 1: GCAGGGGTGTAGGACAACTCGGCGTCAGTGGGTAGTGTCTGTGTTCCGTTGTCCGTGCTG
DNA 2: CAGCACGGACAACGGAACACAGACACTACCCACTGACGCCGAGTTGTCCTACACCCCTGC
binding signal: -0.45 robust z of log adjusted intensity (ours), mean of two arrays

B22: dBr_Jan07_10250 (dsDNA)
DNA 1: CCGCTCCACGAGCCACGACCGAATACCGTACACGTGGTCTGTGTTCCGTTGTCCGTGCTG
DNA 2: CAGCACGGACAACGGAACACAGACCACGTGTACGGTATTCGGTCGTGGCTCGTGGAGCGG
binding signal: 4.92 robust z of log adjusted intensity (ours), mean of two arrays

B23: dBr_Jan07_28323 (dsDNA)
DNA 1: GGCTCAAGACAGATTGCAGCTTTGACAACCGAATTCGTCTGTGTTCCGTTGTCCGTGCTG
DNA 2: CAGCACGGACAACGGAACACAGACGAATTCGGTTGTCAAAGCTGCAATCTGTCTTGAGCC
binding signal: -0.41 robust z of log adjusted intensity (ours), mean of two arrays

B24: dBr_Jan07_08887 (dsDNA)
DNA 1: ATAGCCGCGTGGCATATGGTCCGGCGACCCCCTCTCGTCTGTGTTCCGTTGTCCGTGCTG
DNA 2: CAGCACGGACAACGGAACACAGACGAGAGGGGGTCGCCGGACCATATGCCACGCGGCTAT
binding signal: 7 robust z of log adjusted intensity (ours), mean of two arrays

B25: dBr_Jan07_34487 (dsDNA)
DNA 1: AACAGCCCACCCCTTATCAACGCGGCGCTTTCAGGCGTCTGTGTTCCGTTGTCCGTGCTG
DNA 2: CAGCACGGACAACGGAACACAGACGCCTGAAAGCGCCGCGTTGATAAGGGGTGGGCTGTT
binding signal: -0.28 robust z of log adjusted intensity (ours), mean of two arrays

B26: dBr_Jan07_04404 (dsDNA)
DNA 1: ATCCTCTTGAAACACTACAAGTTTCGTTAAAAAAAGGTCTGTGTTCCGTTGTCCGTGCTG
DNA 2: CAGCACGGACAACGGAACACAGACCTTTTTTTAACGAAACTTGTAGTGTTTCAAGAGGAT
binding signal: -0.11 robust z of log adjusted intensity (ours), mean of two arrays

B27: dBr_Jan07_11873 (dsDNA)
DNA 1: CCAGAGTTCGTAGGCAAAAACCCGCGACGGTATGCCGTCTGTGTTCCGTTGTCCGTGCTG
DNA 2: CAGCACGGACAACGGAACACAGACGGCATACCGTCGCGGGTTTTTGCCTACGAACTCTGG
binding signal: -0.41 robust z of log adjusted intensity (ours), mean of two arrays

B28: dBr_Jan07_08177 (dsDNA)
DNA 1: GGAGGTCTAACTGGGAACGGCAATGCGCCCATATTTGTCTGTGTTCCGTTGTCCGTGCTG
DNA 2: CAGCACGGACAACGGAACACAGACAAATATGGGCGCATTGCCGTTCCCAGTTAGACCTCC
binding signal: -0.41 robust z of log adjusted intensity (ours), mean of two arrays

B29: dBr_Jan07_08379 (dsDNA)
DNA 1: CGCGGAAGCCTCTACGCTTGATTGTATCCAACACCCGTCTGTGTTCCGTTGTCCGTGCTG
DNA 2: CAGCACGGACAACGGAACACAGACGGGTGTTGGATACAATCAAGCGTAGAGGCTTCCGCG
binding signal: -0.26 robust z of log adjusted intensity (ours), mean of two arrays

B30: dBr_Jan07_13143 (dsDNA)
DNA 1: AGCTGTTGGTGCATCCTATGTCGAAGACTGGCGGCGGTCTGTGTTCCGTTGTCCGTGCTG
DNA 2: CAGCACGGACAACGGAACACAGACCGCCGCCAGTCTTCGACATAGGATGCACCAACAGCT
binding signal: -0.67 robust z of log adjusted intensity (ours), mean of two arrays

B31: dBr_Jan07_16988 (dsDNA)
DNA 1: CCACCTAGGGGATACTCGCAAGGTCGGGAAACCACCGTCTGTGTTCCGTTGTCCGTGCTG
DNA 2: CAGCACGGACAACGGAACACAGACGGTGGTTTCCCGACCTTGCGAGTATCCCCTAGGTGG
binding signal: -0.45 robust z of log adjusted intensity (ours), mean of two arrays

B32: dBr_Jan07_40185 (dsDNA)
DNA 1: AGAATCAAGGTGAGCGAGCAAGGCTTAAAATCCCGCGTCTGTGTTCCGTTGTCCGTGCTG
DNA 2: CAGCACGGACAACGGAACACAGACGCGGGATTTTAAGCCTTGCTCGCTCACCTTGATTCT
binding signal: -0.61 robust z of log adjusted intensity (ours), mean of two arrays

B33: dBr_Jan07_03085 (dsDNA)
DNA 1: TGTACGGGAGACCTTGCGGCGCCTACGAGCAACAACGTCTGTGTTCCGTTGTCCGTGCTG
DNA 2: CAGCACGGACAACGGAACACAGACGTTGTTGCTCGTAGGCGCCGCAAGGTCTCCCGTACA
binding signal: -0.59 robust z of log adjusted intensity (ours), mean of two arrays
